Numbered stars: 1 amine (or outer) side, 2 acyl side, 3 side chain; on linkers, the order of the positions; unused ones are H or OH. Bridge positions count the residues as written; N and C are the ends. Side chains are listed from the residue outwards. Ends that are not written are not given here. * marks the point of attachment. C20 diacid = O=C(O)CCCCCCCCCCCCCCCCCCC(=O)*; γGlu = O=C(O)[C@H](CCC(=O)[*:2])N[*:1]

From US20140087995A1 (published 2014) come the findings set out here.

For this test, the target named is T1, human amylin receptor (amylin 3(a) receptor: human calcitonin receptor with RAMP-3) (human, UniProt P30988 25-474; O60896 24-148).
T1 construct: whole, on cells; also called hAmylin-R; hAmylinR
T1 sequence (looked up) 1: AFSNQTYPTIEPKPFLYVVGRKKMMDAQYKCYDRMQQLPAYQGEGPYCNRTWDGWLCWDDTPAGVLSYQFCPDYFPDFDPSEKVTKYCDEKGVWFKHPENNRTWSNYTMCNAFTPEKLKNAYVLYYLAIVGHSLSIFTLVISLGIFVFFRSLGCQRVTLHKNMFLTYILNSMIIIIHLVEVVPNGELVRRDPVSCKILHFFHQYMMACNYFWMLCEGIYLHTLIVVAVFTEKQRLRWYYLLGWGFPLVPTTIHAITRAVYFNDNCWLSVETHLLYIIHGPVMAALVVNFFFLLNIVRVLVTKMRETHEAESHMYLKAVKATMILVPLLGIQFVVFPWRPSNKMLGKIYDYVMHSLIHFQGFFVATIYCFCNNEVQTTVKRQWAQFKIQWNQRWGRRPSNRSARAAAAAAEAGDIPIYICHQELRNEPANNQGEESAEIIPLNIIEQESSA
T1 sequence (looked up) 2: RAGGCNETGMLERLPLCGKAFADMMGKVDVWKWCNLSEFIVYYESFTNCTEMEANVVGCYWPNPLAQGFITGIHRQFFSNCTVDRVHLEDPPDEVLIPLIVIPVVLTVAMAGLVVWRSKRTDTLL
In words: SPA displacement of 125I-rat amylin, hAmylin 3(a) receptor membranes. In short, it runs like this: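 SPA beads with BHK Amylin 3(a)/CRE-luc cell membranes (35 ng/μL final) in 50 mM Hepes pH 7.4, 1 mM CaCl2, 5 mM MgCl₂, 0.1% OA, 0.02% Tween20.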

B1: N^ε-[(4S)-4-carboxy-4-(19-carboxynonadecanoylamino)butanoyl]Lys[Arg1,Arg17,Pro21,Pro27,His35]-h-amylin (peptide)
peptide: K([γGlu-C20 diacid])RCNTATCATQRLANFLRHSSPNFGAIPSSTNVGSHTY-NH2
modifications: disulfide 3-8; N-terminus assumed
SMILES: CC[C@H](C)[C@H](NC(=O)[C@H](C)NC(=O)CNC(=O)[C@H](Cc1ccccc1)NC(=O)[C@H](CC(N)=O)NC(=O)[C@@H]1CCCN1C(=O)[C@H](CO)NC(=O)[C@H](CO)NC(=O)[C@H](Cc1c[nH]cn1)NC(=O)[C@H](CCCNC(=N)N)NC(=O)[C@H](CC(C)C)NC(=O)[C@H](Cc1ccccc1)NC(=O)[C@H](CC(N)=O)NC(=O)[C@H](C)NC(=O)[C@H](CC(C)C)NC(=O)[C@H](CCCNC(=N)N)NC(=O)[C@H](CCC(N)=O)NC(=O)[C@@H](NC(=O)[C@H](C)NC(=O)[C@@H]1CSSC[C@H](NC(=O)[C@H](CCCNC(=N)N)NC(=O)[C@@H](N)CCCCNC(=O)CC[C@H](NC(=O)CCCCCCCCCCCCCCCCCCC(=O)O)C(=O)O)C(=O)N[C@@H](CC(N)=O)C(=O)N[C@@H]([C@@H](C)O)C(=O)N[C@@H](C)C(=O)N[C@@H]([C@@H](C)O)C(=O)N1)[C@@H](C)O)C(=O)N1CCC[C@H]1C(=O)N[C@@H](CO)C(=O)N[C@@H](CO)C(=O)N[C@H](C(=O)N[C@@H](CC(N)=O)C(=O)N[C@H](C(=O)NCC(=O)N[C@@H](CO)C(=O)N[C@@H](Cc1c[nH]cn1)C(=O)N[C@H](C(=O)N[C@@H](Cc1ccc(O)cc1)C(N)=O)[C@@H](C)O)C(C)C)[C@@H](C)O
notes: also called 44; compound 44
For B1, the half-inhibitory concentration (IC50) came to 0.275 nM.

B2: N^-1-[(4S)-4-carboxy-4-(19-carboxynonadecanoylamino)butanoyl]-Gly[Arg1,Arg17,Pro21,Pro27,His35]-h-amylin (peptide)
peptide: {C20 diacid-γGlu}-GRCNTATCATQRLANFLRHSSPNFGAIPSSTNVGSHTY-NH2
modifications: disulfide 3-8
SMILES: CC[C@H](C)[C@H](NC(=O)[C@H](C)NC(=O)CNC(=O)[C@H](Cc1ccccc1)NC(=O)[C@H](CC(N)=O)NC(=O)[C@@H]1CCCN1C(=O)[C@H](CO)NC(=O)[C@H](CO)NC(=O)[C@H](Cc1c[nH]cn1)NC(=O)[C@H](CCCNC(=N)N)NC(=O)[C@H](CC(C)C)NC(=O)[C@H](Cc1ccccc1)NC(=O)[C@H](CC(N)=O)NC(=O)[C@H](C)NC(=O)[C@H](CC(C)C)NC(=O)[C@H](CCCNC(=N)N)NC(=O)[C@H](CCC(N)=O)NC(=O)[C@@H](NC(=O)[C@H](C)NC(=O)[C@@H]1CSSC[C@H](NC(=O)[C@H](CCCNC(=N)N)NC(=O)CNC(=O)CC[C@H](NC(=O)CCCCCCCCCCCCCCCCCCC(=O)O)C(=O)O)C(=O)N[C@@H](CC(N)=O)C(=O)N[C@@H]([C@@H](C)O)C(=O)N[C@@H](C)C(=O)N[C@@H]([C@@H](C)O)C(=O)N1)[C@@H](C)O)C(=O)N1CCC[C@H]1C(=O)N[C@@H](CO)C(=O)N[C@@H](CO)C(=O)N[C@H](C(=O)N[C@@H](CC(N)=O)C(=O)N[C@H](C(=O)NCC(=O)N[C@@H](CO)C(=O)N[C@@H](Cc1c[nH]cn1)C(=O)N[C@H](C(=O)N[C@@H](Cc1ccc(O)cc1)C(N)=O)[C@@H](C)O)C(C)C)[C@@H](C)O
notes: also called 47; compound 47
With B2, the IC50 worked out at 0.344 nM.

In general, IC50 refers to the concentration that gives 50% inhibition.
